Experimental data published in patent US20230382948A1, “DELIVERY OF ENDOTHELIAL CELL-LADEN MICROGEL ELICITS ANGIOGENESIS IN SELF-ASSEMBLING ULTRASHORT PEPTIDE HYDROGELS” (KING ABDULLAH UNIVERSITY OF SCIENCE AND TECHNOLOGY, priority 2020, published 2023).

How the values were obtained:
SEM of microgels = format: physicochemical; settings: for Microgel surface fiber bundle thickness: SEM
Description: The surface topography of the microgels was visualized using a FEI Magellan XHR Scanning Electron Microscope with an accelerating voltage of 3 kV. The SEM samples were prepared by dehydrating the peptide microgels in a gradually increasing ethanol concentration. The dehydrated microgels were then dried in a Leica EM CPD300. The dried peptides were sputter coated with 5 nm […] before imaging.

[1] = Transmission electron microscopy of nanofibers; format: physicochemical; settings: TEM
Description: TEM imaging was performed using a FEI Tecnai G2 Spirit Twin instrument with a 120 kV emission gun. One drop of diluted peptide hydrogel in water was placed on a carbon-coated copper grid that had been treated with glow discharge plasma prior to being used. The drop was kept on the grid for 10 min before being blotted using filter paper. The grid was stained with 2% uranyl acetate for 30 s to get better contrast. The grid was then rinsed in water to remove uranyl excess and dried for at least 1 day before imaging. The average diameter of the nanofibers was measure using hnageJ and Origin software from 100 fibers.

fibroblasts (HDFn) = experiment: Cell culture on microgels, HDFn; format: cell-based, human; settings: first 24 h of culture
Description: A 1.2×10^6 amount of cells suspended in 4 mL of complete cell culture media (300,000 cells/mL) was mixed with 200 μL of microgels by pipetting. The mix was seeded at […] in a 24-well low binding plate and kept at 37° C., 95% humidity, and 5% CO2 under rocker conditions at 30 rpm for 24 h. Then, cell-laden microgels were transferred into a tube by pipetting and spun down at 50 g for 5 min. The upper layer, containing cells not adherent to the microgels, was discarded. At this moment, cell-laden microgels were either resuspended with complete cell culture media to continue cell culture under rocker conditions or processed for staining.
The cell-laden microgels were fixed with 4% formaldehyde (v/v) in PBS and incubated for 30 min at 22° C. Later, formaldehyde was removed by centrifugation, and cell-laden microgels were washed twice with PBS in a similar way. Permeabilization buffer (6.3 mM MgCl2, 233.7 mM sucrose, 0.5% (v/v) Triton® X-100 in PBS) was kept at −20° C. and thawed just before use. […]
Proliferative cells were labeled by incubating cell-laden microgels with […] EdU in complete medium for 24 h in rocking culture at 30 rpm. […] EdU was detected following the manufacturer instructions by incubating cell-laden microgels with a Click-iT Plus reaction cocktail for 30 min at 22° C. protected from light. […]

[2] = Microgel fabrication by flow-focusing microfluidics, microgel imaging (diameter, roundness); format: physicochemical; settings: for Microgel average diameter: SUP solution 1.5 wt %, oil with Span 80 (2%) and sodium chloride
Description: Since the microgels are intended to be cell carriers, the fabrication materials were sterilized before use when possible and handled aseptically inside a biosafety cabinet (BSC) to reduce contamination risk. Milli-Q® water and hexadecane were sterilized by autoclaving at 121° C. for 20 min. Light mineral oil was sterilized by dry heating at 160° C. for 1 h. Peptide powder and sodium chloride were sterilized by UV irradiation (GE® germicidal lamp 30 W) for 30 min inside BSC. Once sterile, the peptide powder was dissolved to 27.1 mM (15 mg/mL) in sterile Milli-Q® water by vortexing for 5 min and incubated at room temperature (22° C.) for 1 h (preassembly). Span 80 was dissolved to 2% (v/v) into light mineral oil and hexadecane, independently. Sodium chloride was added to the light mineral oil+Span 80 mix and shaked to disperse the sodium chloride crystals. The peptide solution was loaded in a 1 mL syringe, while the light mineral oil with Span 80 2% (v/v) and sodium chloride 3 mg/mL were loaded in a 3 mL syringe. Both syringes were connected with the microfluidic system, and both solutions were brought to the droplet generator point by pressing the syringes manually. Then, both syringes were inserted into the pumps, and the flow rate was set at 10 μL/min for continuous phase (light mineral oil with Span 80 and sodium chloride) and 1 μL/min for dispersed phase (peptide solution). Droplet generation was monitored by on-site bright-field microscopy, and once it was stable and continuous, the droplets were collected in a tube containing light mineral oil with Span 80 2% (v/v). To confirm peptide droplet gelation, FluoSpheres® or QD were sometimes incorporated into the peptide solution during the preassembly incubation. Microgels were isolated from oil adding the same volume of hexadecane containing Span 80 (2% v/v) and centrifuged at 10 g for 5 min, and the oil layer was discarded. Microgels were washed with hexadecane plus Span 80 (2% v/v) two more times, discarding the hexadecane layer. A volume of DPBS containing Tween 20 (10% v/v) was gently added on the microgels through the collection tube walls and removed after 5 min. DPBS—Tween 20 washing was repeated 2 more times, decreasing the Tween 20 content to 1% v/v and 0.1% v/v sequentially. Finally, 250μL of DPBS was added on the microgels to keep them soaked, and they were kept on a shelf (22° C.) until further use. The microgel shape and size were checked by confocal laser scanning microscopy (CLSM).
Microgel imaging was done at each condition and time point using a CLSM Zeiss® 710 or 880 by tile scanning with 15% overlapping and online stitching to capture as many microgels as possible from the dish. The Feret diameter and roundness of each microgel was calculated using ImageJ software by manually drawing up to 59 microgel contours per condition. All statistical data analysis and microgel descriptor plotting were conducted in Origin software. To assess the effect of the treatments on the microgel diameter and roundness, a Kruskal—Wallis test with Posthoc test pairwise Mann—Whitney U tests was applied.

[3] = after extraction to the aqueous phase (PBS)

Substance	Microgel stability through SEM sample preparation (SEM of microgels; 1.5 wt %, critical point drier)	Microgel surface fiber bundle thickness (SEM of microgels)	Single-filament thickness [1]	HDFn cell adhesion and morphology on microgels (fibroblasts (HDFn))	Microgel swelling on extraction from the oil phase to the aqueous phase [2]	Microgel average diameter [2] [μm]	Microgel roundness, average [2, 3]	Microgel roundness, average ([2]; in oil)	Minimum concentration with many intact microgels after isolation in the aqueous phase [2] [wt %]
Ac-Ile-Val-Cha-Lys-NH2 (IVXK; HELM PEPTIDE1{[ac].I.V.[Cha].K.[am]}$$$$V2.0; SMILES CC[C@H](C)[C@H](NC(C)=O)C(=O)N[C@H](C(=O)N[C@@H](CC1CCCCC1)C(=O)N[C@@H](CCCCN)C(N)=O)C(C)C) [IVZK, self-assembling ultrashort tetrapeptide, Z = cyclohexylalanine, forms hydrogels and microgels]	stable enough to maintain their 3D spherical structure	around 20 nm	around 3 nm	cell adhesion and stretched morphology	not	350	0.88	0.98	–
Ac-Ile-Val-Phe-Lys-NH2 (Ac-IVFK-NH2) [self-assembling ultrashort tetrapeptide, forms hydrogels and microgels]	–	around 20 nm	around 3 nm	cell adhesion and stretched morphology	50 μm	300	0.88	0.98	0.8
